Experimental data from US20170319722A1.
pEC50: −log10 of the molar value.

Experiments:
[1] = biological target: His-tagged CD8α human recombinant protein (TP760215, Origene) (human) (UniProt P01732); test: sandwich ELISA; biotinylated ligand on NeutrAvidin plate, His-tagged CD8α titrated, anti-His-AP detection
[2] = biological target: CD8 on human peripheral blood mononuclear cells (PBMCs) (human) (UniProt P01732); test: flow cytometry, human PBMCs, co-stained with CD3-APC mAb
Chain of CD8 on human peripheral blood mononuclear cells (PBMCs) (human) (P01732 22-235): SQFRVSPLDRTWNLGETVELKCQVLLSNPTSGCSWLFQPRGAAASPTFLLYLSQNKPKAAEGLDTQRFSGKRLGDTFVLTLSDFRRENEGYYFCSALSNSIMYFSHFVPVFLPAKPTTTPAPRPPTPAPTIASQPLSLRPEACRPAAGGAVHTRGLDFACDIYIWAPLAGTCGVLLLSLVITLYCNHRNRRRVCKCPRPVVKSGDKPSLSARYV

Chain of His-tagged CD8α human recombinant protein (TP760215, Origene) (human) (P01732 22-182 limits assumed): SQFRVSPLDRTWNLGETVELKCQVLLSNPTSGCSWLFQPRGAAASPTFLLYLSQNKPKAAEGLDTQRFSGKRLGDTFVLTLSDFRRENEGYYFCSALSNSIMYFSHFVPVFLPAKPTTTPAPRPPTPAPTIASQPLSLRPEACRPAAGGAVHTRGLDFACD

Substance | pEC50 [1] | % of cells detected (Q2) [2] [%] | % of cells detected (Q4) [2] [%]
biotin-PEG3-Cy(slrfG) (peptide) | 7.70 |  | 
biotin-PEG3-Cy(yGGvr) (peptide) | 8.00 |  | 
human CD8-FITC mAb (clone: RPA-T8) (#561947, BD Biosciences) (antibody) |  | 11.2 | 2.1
